From the supplement of paper PMC7125110
± gives the standard error. Fewer inactive variants are shown than the library holds.

B1: glmS ribozyme (parent)
chain: AUAAAAGCGCCAGAACUACAGAAAUGUAGUUGACGAGGAGGAGGUUUAUCGAAUUUUCGGCGGAUGCCUCCAAA

Legend:
Settings in all cases: with glucosamine-6-phosphate
glucosamine-6-phosphate [1] = variants of: B1; test: self-cleavage kobs at 160 uM GlcN6P; higher = faster cleavage; RNA array
Outline: (§1)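 kcat and KM were obtained from weighted Michaelis–Menten fits across concentrations of kobs values. Those came from one- or two-exponential decay fits to per-tile medians normalised to baseline and to non-cleaving reference variants. The variants were barcoded ribozymes transcribed in situ by E. coli RNA polymerase on sequenced MiSeq chips and tracked through a hybridised Cy3 probe at 37 °C, with 40 μM to 10 mM glucosamine-6-phosphate in HEPES/KCl/Mg(OAc)2 buffer flowed in.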

glucosamine-6-phosphate [2] = variants of: B1; test: self-cleavage kobs at 640 uM GlcN6P; higher = faster cleavage; RNA array
Outline: as §1

glucosamine-6-phosphate [3] = variants of: B1; test: self-cleavage kobs at 2500 uM GlcN6P; higher = faster cleavage; RNA array
Outline: as §1

glucosamine-6-phosphate [4] = variants of: B1; test: self-cleavage kobs at 10000 uM GlcN6P; higher = faster cleavage; RNA array
Outline: as §1

Variant | self-cleavage kobs at 160 uM GlcN6P (glucosamine-6-phosphate [1]) [s⁻¹] | self-cleavage kobs at 640 uM GlcN6P (glucosamine-6-phosphate [2]) [s⁻¹] | self-cleavage kobs at 2500 uM GlcN6P (glucosamine-6-phosphate [3]) [s⁻¹] | self-cleavage kobs at 10000 uM GlcN6P (glucosamine-6-phosphate [4]) [s⁻¹]
C8U A52G | < 1e-05 | < 1e-05 | < 1e-05 | < 1e-05
C11G A42C | < 1e-05 | < 1e-05 | < 1e-05 | –
A15G U49G G63U C67A | < 1e-05 | < 1e-05 | – | –
C16G G62C A64U | < 1e-05 | – | – | –
U30C A36G | < 1e-05 | – | – | < 1e-05
A15C A64U | < 1e-05 | < 1e-05 | – | –
A12U G13C U47G G60C | < 1e-05 | – | < 1e-05 | –
C10A A33C G44A A52G U65A | < 1e-05 | – | – | –
A15G G40A A53G | 0.000772 ± 0.00017 | – | 0.00292 ± 0.00062 | –
C8U C16A A39C U46C G51A U65G U69A | < 1e-05 | – | < 1e-05 | –
G13C A39C A53C | < 1e-05 | – | – | –
G32A A42C | < 1e-05 | < 1e-05 | < 1e-05 | < 1e-05
C16A A33G A64G C71G | 8.57e-05 ± 3.4e-05 | – | 6.35e-05 ± 2.8e-05 | –
A12U G35A G40U | < 1e-05 | < 1e-05 | < 1e-05 | –
C8U G32U G62U C71U | < 1e-05 | – | < 1e-05 | –
G32U U54G | 7.28e-05 ± 2.7e-05 | 0.000164 ± 5.1e-05 | 0.000272 ± 6.1e-05 | 0.000903 ± 0.00012
C16A G38C C68U | < 1e-05 | < 1e-05 | – | –
A14C A39U U56A G63U | < 1e-05 | – | – | –
A14G G29A A36U U47C C67U | < 1e-05 | < 1e-05 | – | –
C8G A42U C58U | < 1e-05 | – | < 1e-05 | –
C8U U47C G62U | < 1e-05 | < 1e-05 | – | –
C16A G35A G43A | < 1e-05 | < 1e-05 | < 1e-05 | –
U31G G43U G66U | < 1e-05 | – | < 1e-05 | –
G9A U46C G63C | < 1e-05 | < 1e-05 | – | –
C10U G51C | < 1e-05 | – | – | –
A15C U30G U31G | 0.00201 ± 0.00083 | 0.0146 ± 0.0069 | 0.00946 ± 0.0035 | –
C16A U49C | < 1e-05 | < 1e-05 | – | < 1e-05
C8A A33U | < 1e-05 | – | < 1e-05 | < 1e-05
